Molecular target: dendritic cell-specific intercellular adhesion molecule-3-grabbing nonintegrin (DC-SIGN) (UniProt Q9NNX6)
Experiment: cell-based or functional assay

UniProt Q9NNX6, sequence (Q9NNX6 whole entry): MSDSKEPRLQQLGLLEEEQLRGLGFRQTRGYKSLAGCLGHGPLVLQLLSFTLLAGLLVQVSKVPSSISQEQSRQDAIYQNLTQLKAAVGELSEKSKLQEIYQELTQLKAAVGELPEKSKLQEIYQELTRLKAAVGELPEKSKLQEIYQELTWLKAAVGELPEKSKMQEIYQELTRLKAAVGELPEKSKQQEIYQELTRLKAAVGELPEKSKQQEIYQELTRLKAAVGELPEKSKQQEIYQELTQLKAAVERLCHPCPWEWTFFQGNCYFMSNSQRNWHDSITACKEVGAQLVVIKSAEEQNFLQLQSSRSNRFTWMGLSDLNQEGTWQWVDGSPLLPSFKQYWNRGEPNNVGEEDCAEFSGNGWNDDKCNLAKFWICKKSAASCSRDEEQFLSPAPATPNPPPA

With “Man-OvaI/II (combination of particles PP7-Man900-OvaI100 and PP7-Man900-OvaII100) (from UniProt P03630 2-127)” as the substance, how does the uptake of fluorophore-labeled VLPs by moDCs over 30 min (flow cytometry) (fold against PE-OvaI/II) read?
Its uptake of fluorophore-labeled VLPs by moDCs over 30 min (flow cytometry) (fold against PE-OvaI/II) is 5.

From patent publication US20260053903A1
